Target: T1, FAP (Homo sapiens, UniProt Q12884)
T1 construct: the extracellular domain of FAP was cloned with a His-6 tag; made in house
T1 sequence (Q12884 26-760 limits assumed): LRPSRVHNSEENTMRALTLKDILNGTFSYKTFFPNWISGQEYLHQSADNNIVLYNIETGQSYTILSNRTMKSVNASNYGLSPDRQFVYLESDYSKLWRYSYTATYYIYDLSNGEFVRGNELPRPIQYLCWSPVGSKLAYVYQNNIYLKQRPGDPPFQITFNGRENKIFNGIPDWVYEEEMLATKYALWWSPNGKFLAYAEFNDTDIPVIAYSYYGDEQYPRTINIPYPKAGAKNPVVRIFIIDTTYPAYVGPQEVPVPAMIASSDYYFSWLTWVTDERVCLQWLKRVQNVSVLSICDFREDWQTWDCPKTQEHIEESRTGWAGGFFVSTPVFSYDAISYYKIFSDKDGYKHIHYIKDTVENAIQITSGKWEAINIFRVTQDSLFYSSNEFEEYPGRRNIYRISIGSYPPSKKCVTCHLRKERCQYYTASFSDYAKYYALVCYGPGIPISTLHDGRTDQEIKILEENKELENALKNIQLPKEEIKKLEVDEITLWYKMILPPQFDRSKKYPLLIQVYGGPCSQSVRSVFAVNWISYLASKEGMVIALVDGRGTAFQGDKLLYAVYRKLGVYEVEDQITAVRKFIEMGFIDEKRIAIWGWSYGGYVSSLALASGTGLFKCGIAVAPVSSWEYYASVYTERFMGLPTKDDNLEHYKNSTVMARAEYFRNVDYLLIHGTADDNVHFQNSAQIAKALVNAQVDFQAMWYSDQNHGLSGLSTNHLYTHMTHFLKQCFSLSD
Experiment: LC-MS/MS cleavage map of FAP digest of 100 kDa recombinant human gelatin
Assay type: biochemical
Conditions: 100 kDa gelatin digest; for Percentage: share of all occurrences
Experimental: Human collagen I (Becton Dickinson, Franklin Lakes, N.J.) and recombinant human gelatins of 100 KDa and 8.5 KDa (Fibrogen, San Francisco, Calif.) were dissolved in reaction buffer to a final concentration of 100-300 μg/ml. 0.5-1 μg of FAP was added per 100 μgs of protein substrate. Digestion was done for 4-6 hrs at 37° C. As a positive control trypsin digestion was used. As a negative control, protein solutions were incubated either with BSA or buffer only. Peptide fragments of a size <30 KDa were purified using 30 KDa Microcon spin filter (Millipore, Billerica, Mass.).
Peptides obtained from FAP/gelatin digests were dried using a speedvac (Eppendorf), resuspended in LC/MS loading buffer (3% ACN, 0.1% formic acid), and analyzed using nano-flow LC/MS/MS on an Agilent 1100 series nano-LC system (Agilent) coupled to an LCQ Duo ion trap mass spectrometer (ThermoFinnigan). Peptides were pre-concentrated on a 5 mm Zorbax C18 trap column (Agilent) and then eluted onto a 100×0.075 mm custom-packed Biobasic C18 (ThermoElectron) reversed phase capillary column connected to a laser-pulled electrospray ionization emitter tip (New Objective) at a flowrate of 300 nl/min Peptides were eluted the nanospray source of the LCQ (Proxeon, Denmark) using the following gradient: 0% B at 0 min, 5% B at 8 min, 45% B at 50 min, 90% B at 55 min, 90% B at 60 min (B=0.1% formic acid in acetonitrile) at a spray voltage of 2.5 kV. The LCQ was operated in data-dependent mode using the Xcalibur software (ThermoFinnigan) in which every MS scan (400-1800 m/z) was followed by MS/MS scans (400-1800 m/z) on the 3 most intense ions using an isolation window of ±1.5 Da. Ions selected for MS/MS fragmentation were dynamically excluded for 30 s.
MS/MS data were searched against a collagen FASTA database using the SEQUEST search algorithm built into the Bioworks Browser (ThermoFinnigan) allowing for the variable modification of Methionine oxidation. Peptides were initially filtered in a charge dependent manner using an XCorr filter of 1.5, 2, and 2.5 for singly, doubly, and triply charged peptides. All MS/MS spectra used to identify peptides were manually inspected for validation of y and b-ion series. To quantify the relative abundance of each identified peptide we compared the ion current for each of the observed peptide parent ions from the MS spectra. The contribution of each parent ion to the total ion current was extracted and integrated over the peptide elution peak.
To resolve each particular mass fragment a Liquid Chromatograpy (LC) and Tandem mass spectroscopy (MS-MS) [LC-MS-MS] method was developed. Using this method, peptide fragments from FAP digests of the 8.5 kDa and 100 kDa recombinant gelatin were time-resolved by nano reverse phase LC (FIGS. 12 and 14) and then sequenced using an ion trap mass spectrometer operating in MS/MS mode. Initial methodological issues were worked out using the 8.5 kDa fragment before analyzing the entire 100 kDa protein. MS/MS spectra were searched against the 8.5 kDa and 100 kDa gelatin sequences using the SEQUEST algorithm with no cleavage specificity. Most of the identified cleavage sites in both sized gelatins occurred after Proline. However, FAP cleavage sites in these gelatins were not restricted to Proline alone. FAP was also found to cleave after Ala (e.g. A/A, A/G, A/P, A/R), Asp (e.g. D/G, D/T), Gly (e.g. G/A, G/E, G/L, G/Q, G/P, G/V), Glu (i.e., E/P), Lys (i.e., K/A, K/G), Ser (e.g. S/P) and Val (e.g. V/G).
To identify the most preferentially cleaved sites, we relatively quantified the abundance of each of the identified peptides by integrating the ion current generated by each peptide throughout the chromatogram. After identification of a peptide from a MS/MS spectrum, we extracted the ion current for the parent mass of the ion from the total MS ion chromatogram using a 1.5 Da tolerance window, and then integrated under the peak (FIGS. 12 and 14). […]

Substance | Occurences | Percentage
P.AGPPGEAGKPGEQGVPGDLGAPGP.S: FAP cleavage fragment, 100 kDa recombinant human gelatin | 6 | 2.86
G.PPGPAGPAGPPGP.I: FAP cleavage fragment, 100 kDa recombinant human gelatin | 1 | 0.48
A.PGDKGESGP.S: FAP cleavage fragment, 100 kDa recombinant human gelatin | 2 | 0.95
G.PPGAPGAPGAPGPVGPAGKSGDRGETGP.A: FAP cleavage fragment, 100 kDa recombinant human gelatin | 7 | 3.33
G.PPGADGQPGAKGEPGDAGAKGDAGPPGP.A: FAP cleavage fragment, 100 kDa recombinant human gelatin | 2 | 0.95
P.KGAAGEPGKAGERGVPGPPGAVGPAGKDGEAGAQGPPGP.A: FAP cleavage fragment, 100 kDa recombinant human gelatin | 1 | 0.48
D.GQPGAKGEPGDAGAKGDAGPPGP.A: FAP cleavage fragment, 100 kDa recombinant human gelatin | 2 | 0.95
G.PSGEPGKQGPSGASGERGPPGP.M: FAP cleavage fragment, 100 kDa recombinant human gelatin | 1 | 0.48
P.TGARGAPGDRGEPGPPGP.A: FAP cleavage fragment, 100 kDa recombinant human gelatin | 13 | 6.19
A.PGAPGAPGPVGPAGKSGDRGETGP.A: FAP cleavage fragment, 100 kDa recombinant human gelatin | 4 | 1.90
G.PPGPAGAPGDKGESGP.S: FAP cleavage fragment, 100 kDa recombinant human gelatin | 3 | 1.43
V.GPPGPPGPP.G: FAP cleavage fragment, 100 kDa recombinant human gelatin | 2 | 0.95
P.AGRPGEVGPPGPPGP.A: FAP cleavage fragment, 100 kDa recombinant human gelatin | 11 | 5.24
P.GPSGNAGPPGPP.G: FAP cleavage fragment, 100 kDa recombinant human gelatin | 1 | 0.48
P.AGPTGARGAPGDRGEPGPPGP.A: FAP cleavage fragment, 100 kDa recombinant human gelatin | 6 | 2.86
P.AGPPGPIGNVGAPGAKGARGSAGPPGATGFPGAAGRVGPPGP.S: FAP cleavage fragment, 100 kDa recombinant human gelatin | 3 | 1.43
P.VGPPGPPGPP.G: FAP cleavage fragment, 100 kDa recombinant human gelatin | 3 | 1.43
P.AGEKGSPGADGPAGAPGTPGP.Q: FAP cleavage fragment, 100 kDa recombinant human gelatin | 7 | 3.33
G.PTGARGAPGDRGEPGPPGP.A: FAP cleavage fragment, 100 kDa recombinant human gelatin | 6 | 2.86
D.GRPGPPGPPGARGQAG.V: FAP cleavage fragment, 100 kDa recombinant human gelatin | 2 | 0.95
P.AGFAGPPGADGQPGAKGEPGDAGAKGDAGPPGP.A: FAP cleavage fragment, 100 kDa recombinant human gelatin | 8 | 3.81
P.RGPPGSAGAPGKDGLNGLPGP.I: FAP cleavage fragment, 100 kDa recombinant human gelatin | 14 | 6.67
